Laboratory results reported in patent US8173133B2, “Acyl pseudodipeptides which carry a functionalized auxiliary arm” (OM Pharma, priority 1999, dated 2012).

Columns and labels:
murine macrophage cells = assay: nitric oxide production by murine macrophage cells (Griess); assay type: cell-based, C57/BL6 mice
Excerpt: Six-week old male C57/BL6 mice are killed by CO2 inhalation. The hip, femur, tibia and posterior appendage bones are removed. The bone marrow is extracted from the bone lumen by injecting Dulbecco's Modified Eagle Medium (DH medium) from the end portions which had been excised. The stem cells are washed and resuspended (approximate cell concentration 4000 cells/ml) in DH medium supplemented with 20% equine serum (SH) and 30% L929 cell supernatant. L929 is a murine fibroblast cell line the supernatant fluid of which is rich in growth factor for macrophage cells (M-CSF). The cell suspension is divided into Petri dishes which are incubated for 8 days in an incubator at 37° C. under 8% CO2 and a moisture saturated atmosphere.
After 8 days, the stem cells have differentiated into mature macrophage cells. The macrophage cells are scraped off by rapid cooling, washed and resuspended in DH medium supplemented with 5% foetal calf serum (FCS), amino acids and antibiotics. The cell density is adjusted to 700 000 cells/ml.
Products previously dissolved in DH medium supplemented with 5% FCS, amino acids and antibiotics are serially diluted directly in microtiter plates. The products are tested in triplicates and each microtiter plate comprises a negative control containing plain medium. The final volume in each well is 100 μl.
100 μl of cell suspension are added to diluted solutions of such products and the cells are incubated for 22 hours in an incubator at 37° C., under 8% CO2 and a moisture saturated atmosphere. At the end of the incubation period with the products, 100 μl of supernatant are withdrawn and the nitrite concentration is determined by running a Griess reaction.
100 μl of Griess reagent (5 mg/ml of sulfanilamide+0.5 mg/ml of N-(1-naphtylethylene diamine hydrochloride)) in 2.5% aq. phosphoric acid, are added to each well. The microtiter plates are read with a spectrophotometer at 562 nm wavelength against a reference sample at 690 nm. The nitrite concentration is proportional to nitric oxide content being formed. The nitrite content is determined based on a standard curve.
The results are given as mean value±standard deviation and plotted as a dose versus response curve.
From this dose versus response curve, 3 curve variables are computed:
Max: maximum curve amplitude and corresponding concentration
EC50: concentration corresponding to 50% of maximum amplitude
Min: lowest concentration inducing a significant proliferation corresponding to the blank±3× standard deviation value
Concentration values corresponding to EC50 and Min are determined from line segments joining different points on the curve.
If the curve has no plateau phase but an ascending configuration for the highest concentration being tested, a “>” sign is shown before “Max” and “EC50” values.

[1] = system: human peripheral blood mononuclear cells; assay: α TNF production by human peripheral blood mononuclear cells; assay type: cell-based; conditions: 18 hours
Protocol: (§1) Mononuclear cells of peripheral blood are recovered from buffy coats of 6 healthy donors. Such buffy coat cells are resuspended and mononuclear cells are isolated by centrifugation on a Ficoll-Paque gradient (Amersham Pharmacia). Purified mononuclear cells are resuspended into RPMI-1640 medium supplemented with 10% FCS, antibiotics, mercaptoethanol and L-glutamine. Cell concentration is adjusted to 2×10^6 viable cells/ml
100 μl of each one of these solutions of acyl dipeptide-like compounds bearing an accessory functional side chain spacer, diluted 100-, 10- or 1-fold in RPMI medium 1640, are dispensed into a microtiter plate. Samples are tested in triplicates, and each microtiter plate includes a negative control made up of plain medium. Dilutions of E. coli LPS (ranging grom 1 to 0.00001 μg/ml) are used as a positive control.
100 μl of the cell suspension are added to each well containing product dilute solutions or control. Cells are incubated with the products for 18 hours in an incubator at 37° C., under 5% CO2 and a moisture saturated atmosphere.
At the end of the incubation period, microtiter plates are centrifuged, and the supernatant fluids are pooled and frozen at −80° C. as aliquots until time of ELISA assay.
Concentration of α TNF secreted by mononuclear cells is determined by chemiluminescent ELISA (QuantiGlo #QTAOO R&D kit). 4-fold supernatant fluid dilutions are dispensed into each well of the microtiter plate to which anti-αTNF antibodies are bound. The microtiter plate is incubated for 4 hours at room temperature. After washing, peroxidase-conjugated anti-human a TNF antibody is added. Following a 2 hour incubation period and thorough washing, a chemiluminescent substrate is added and chemilunescence is read after 20 minutes. α TNF content in the supernatant fluid is determined with respect to a standard curve covering the 7000 to 0.7 pg/ml range.
Results are expressed in pg/ml of α TNF produced. Results derive from an experiment representative of acyl-dipeptide-like compound activity

[2] = system: human peripheral blood mononuclear cells; assay: inhibition of E. coli LPS-induced α TNF production in human peripheral blood mononuclear cells; assay type: cell-based; conditions: product 10 μg/ml
Protocol: as §1, with “cells/ml.” for “cells/ml”
Product mediated Inhibition is determined by preincubating those products with mononuclear cells, and adding, 1 hour later, serially diluted solutions of LPS capable of inducing α TFN production. […] E. coli LPS is serially diluted (10-fold dilution) to be in the range of 1 to 0.00001 μg/ml
50 μl of 10 μg/ml dilute product solutions in RPMI 1640 medium are dispensed into a microtiter plate. Each assay (10 μg/ml product concentration+dilute E. coli LPS) is run in triplicates and each microtiter plate includes a negative control comprised of plain medium. LPS-induced α TNF production (without inhibitor) is determined by adding E. coli LPS dilutions to RPMI medium.
100 μl of the cell suspension are added to each well containing dilutions of either product or control. Cells are incubated with the products for 1 hour in an incubator at 37° C., under 5% CO2 and a moisture saturated atmosphere.
At the end of the pre-incubation period, 50 μl of serially diluted solutions of E. coli LPS are added. Incubation of mononuclear cells with the product and LPS is extended for 18 hours. At the end of the cell activation period, the microtiter plates are centrifuged, and the supernatants are pooled and frozen at −80° C. as aliquots until time of ELISA assay.
Concentration of αTNF secreted by mononuclear cells is determined by chemiluminescent ELISA (QuantiGlo #QTAOO R&D kit). 4-fold dilutions of supernatant fluid are dispensed into each well of the microtiter plate to which anti-human αTNF antibodies are bound. The microtiter plate is incubated for 4 hours at room temperature. After washing, peroxidase-conjugated anti-human αTNF antibody is added. Following a 2 hour incubation period and a thorough washing, a chemiluminescent substrate is added and chemilunescence is read after 20 minutes. αTNF content in the supernatant fluid is determined with respect to a standard curve covering the 7000 to 0.7 pg/ml range.
Inhibition is characterized by the E. coli LPS concentration which elicits 50% production of α TNF during co-incubation in comparison to a control including only RPMI. This concentration increases as product inhibition activity becomes stronger. Knowing inhibition values of α TNF production, this concentration is given by calculating 100-(αTNF production induced by product and LPS)/(αTNF production induced by LPS alone)*100. From these inhibition data, concentration is determined by linear regression along the line segment which joins 2 LPS dilutions giving approx. 50% inhibition.
Product ability to inhibit α TNF production in mononuclear cells in response to LPS is further characterized by maximum inhibition. […] Results are calculated from a representative experience using all products.

Spleenic cells = assay: murine spleenic cell proliferation (3H-TdR take-up); assay type: cell-based, CBA mice; conditions: 5 μg/ml, one day of culture, positive control
Protocol: Cell proliferation response is assessed by measuring triturated thymidine (^3H-TdR) take-up after 1 or 2 days of culture. Values reported in the table stand for the arithmetic mean±standard deviation of 4 cultures.

[3] = system: Limulus Amoebocyte Lysate
K562 cells = assay: activation of NK cell cytotoxicity against K562 target cells (LDH release); assay type: cell-based, human
Protocol: PBMC were recovered from buffy coats according to the procedure previously described in example 4.6. […] Cells were incubated under such conditions for 24 hours. K562 cells (human leukemia cell line, ATCC #CCL 243, 20110-2209 Manassas (Va.), U.S.A.) were maintained in culture using RPMI medium containing 10% FCS and subjected to 2 passages per week.
In order to make cytotoxicity measurement, PBMC and K562 cells were washed twice in HBSS and resuspended in Phenol Red-free RPMI medium containing 5% FCS. PBMC were divided into a round bottom 96-well plate so as to achieve a PBMC/target ratio of 20/1, 10/1 and 5/1 in 50 μl volume. 5000 K562 cells (target) were added in each well using 50 μl of Phenol Red-free RPMI. Final volume was 100 μl. The plate was centrifuged to promote contact then incubated at 37° C. for 4 hours.
Cytotoxicity was assayed using a non radioactive CytoTox 96 kit based on measuring LDH release during cell lysis (kit #G1780, batch #124100, Promega, Madison, Wis.) according to the supplier's instructions.
The percentage of cytotoxicity was calculated according to the following equation: […]

Molecule: (3R,9R)-3-[(R)-3-dodecanoyloxytetradecanoylamino]-4oxo-5-aza-9-[(R)-3-hydroxytetradecanoylamino]-1,10-diol 1-dihydrogenphosphate 10-(6-aminohexanoate) [OM-197-MP-AC (R, R)]
- Max concentration (murine macrophage cells; concentration at maximum amplitude): > 100 µg/mL
- EC50 conc (murine macrophage cells; concentration corresponding to 50% of maximum amplitude): > 15.32 µg/mL
- Min concentration (murine macrophage cells; lowest concentration inducing a significant response): 3.35 µg/mL
- α TNF produced ([1]; product 1 μg/ml): 0 pg/mL
- α TNF produced ([1]; product 10 μg/ml): 88 pg/mL
- α TNF produced ([1]; product 100 μg/ml): 84 pg/mL
- max. Inhibition [2]: 100%
- 50% inhibition LPS ([2]; LPS concentration at which α TNF production is 50% of control): 0.68 µg/mL
- max. Inhibition LPS ([2]; LPS concentration corresponding to maximum inhibition): 0.0013 µg/mL

Molecule: Concanavalin A [reference compound]
- thymidine take-up (Spleenic cells): 37.5±6.2 ×10^3 cpm

B1: Ovalbumin: antigen alone (ovalbumin, Fluka AG) (protein, UniProt P01012 2-386, looked up)
Ovalbumin: GSIGAASMEFCFDVFKELKVHHANENIFYCPIAIMSALAMVYLGAKDSTRTQINKVVRFDKLPGFGDSIEAQCGTSVNVHSSLRDILNQITKPNDVYSFSLASRLYAEERYPILPEYLQCVKELYRGGLEPINFQTAADQARELINSWVESQTNGIIRNVLQPSSVDSQTAMVLVNAIVFKGLWEKAFKDEDTQAMPFRVTEQESKPVQMMYQIGLFRVASMASEKMKILELPFASGTMSMLVLLPDEVSGLEQLESIINFEKLTEWTSSNVMEERKIKVYLPRMKMEEKYNLTSVLMAMGITDVFSSSANLSGISSAESLKISQAVHAAHAEINEAGREVVGSAEAGVDAASVSEEFRADHPFLFCIKHIATNAVLFFGRCVSP
- LAL EU/mg [3]: <0.8 EU/mg
- LAL ng of LPS equivalent per mg of product [3]: <0.064 ng of LPS equivalent per mg of product

B2: OM-197-FV-ovalbumin: OM-197-FV7 coupled to ovalbumin by reductive amination (conjugate, UniProt P01012 2-386, looked up)
Ovalbumin: B1 Ovalbumin
modifications: OM-197-FV coupled by reductive amination
- LAL EU/mg [3]: 99 EU/mg
- LAL ng of LPS equivalent per mg of product [3]: 8.21 ng of LPS equivalent per mg of product

B3: IFN-γ: γ IFN (1000 U/ml) stimulus (protein, UniProt P01579 24-161, looked up)
Interferon gamma: QDPYVKEAENLKKYFNAGHSDVADNGTLFLGILKNWKEESDRKIMQSQIVSFYFKLFKNFKDDQSIQKSVETIKEDMNVKFFNSNKKKRDDFEKLTNYSVTDLNVQRKAIHELIQVMAELSPAAKTGKRKRSQMLFRG
- % cytotoxicity (K562 cells; Ratio PBMC:K562 5.1): 17.9%
- Optical density at 490 nm, K562 + PBMC (K562 cells; Ratio PBMC:K562 5.1): 1.68
- Optical density at 490 nm, PBMC alone (K562 cells; Ratio PBMC:K562 5.1): 0.035
- % cytotoxicity (K562 cells; Ratio PBMC:K562 10.1): 29.4%
- Optical density at 490 nm, K562 + PBMC (K562 cells; Ratio PBMC:K562 10.1): 1.9
- Optical density at 490 nm, PBMC alone (K562 cells; Ratio PBMC:K562 10.1): 0.064
- % cytotoxicity (K562 cells; Ratio PBMC:K562 20.1): 39.3%
- Optical density at 490 nm, K562 + PBMC (K562 cells; Ratio PBMC:K562 20.1): 2.1
- Optical density at 490 nm, PBMC alone (K562 cells; Ratio PBMC:K562 20.1, stimulus 24 hours): 0.101
